Measurements as given in PMC12153317 (mBio, 2025).

Biological target: HA head of A/American black duck/New Brunswick/00464/2010(H4N6) (Influenza A virus A/American black …, strain)
Experiment: crystal structure
Conditions: both partners purified

B1: S8V1-157 Fab (crystallization) (Fab, V domains shown)
VH: EVQLVQSGAEVKKPGASVKVSCKVSGYRLTALSMHWVRQAPGKGLEWMGGFDPEEDETIYAQNFQGRVTLTEDTSTDTVYMELSSLRSEDTGVYYCATLMGANPFDYWGQGTLIIVSG
VL: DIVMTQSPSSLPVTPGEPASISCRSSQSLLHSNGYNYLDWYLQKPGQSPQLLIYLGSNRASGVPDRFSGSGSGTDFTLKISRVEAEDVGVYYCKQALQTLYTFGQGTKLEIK
notes: source: 293F, transient transfection, purified (TALON resin, Superdex 200)
**Q.** Does B1 bind?
**A.** binds
